Here are results for 2 substances from patent US20090148408A1.

The assay concerns the target envelope glycoproteins of HIV-1HxB2 strain on Env-pseudotyped luciferase reporter virus (HIV-1 HxB2) (UniProt P04578). The assay can be described thus: cell-based or functional assay.

Turning to “2D-CD4 secreted by L. jensenii harboring pOSEL651 (P23 promoter-CbsAss-2D-CD4) (from UniProt P01730 26-208)”, the inhibition of HIV-1 entry (luciferase activity at 48 hours), co-incubation of L. jensenii Xna-651 bacteria at 2.5x10^8/ml with virus and HeLa CD4-CXCR4 cells is 79%.

Turning to “2D-CD4 secreted by L. jensenii harboring pOSEL651 (P23 promoter-CbsAss-2D-CD4) (from UniProt P01730 26-208) (receptor)”, the inhibition of HIV-1 entry (luciferase activity at 48 hours), co-incubation of L. jensenii Xna-651 bacteria at 5x10^8/ml with virus and HeLa CD4-CXCR4 cells was 90%.
